{"source": "paper PMC9060444", "about": "(2022)", "molecules": {"B1": {"name": "tagless ElpQ (natural protein)", "chain": "CKNFATGKDIKQNSEGKIKGFVNKILDPVKDKIASSGTKVDEVAKKLQEEEKEELMQGDDPNGSGINPPPVLPENIHNNALVLKAIEQSDGQQEKKVEEAEAKVEENKEKQENTEENIKEKEIIDEQNKQELAKAKEEEQQKEQKRHQEEQQRKAKAEKEKREREEAEQQKRQQEEEEKRQVDNQIKTLIAKIDEINENIDVIKWQTTVGPQGVIDRITGPVYDDFTNGNNSIRETWEGLEEESEDEGLGKLLKELSDARDALRTKLNEGNKPYTGYEEPKLKESVNVSEIKEDLEKLKSKLEEVKKYLKDSSKFEEIKGYISDSQ"}, "B2": {"name": "GST-ElpQ (natural protein)", "chain": "B1 chain"}}, "key": {"[1]": {"molecular_target": "human complement C1 complex (human) (UniProt P02745)"}, "[2]": {"molecular_target": "human C1r enzyme (activated C1r) (human)", "assay": "ELISA; ELISA-type binding assay: GST-fusion proteins on wells coated with human C1 complex, C1q, C1r enzyme or C1s enzyme; apparent KD by nonlinear regression (GraphPad Prism)"}, "[3]": {"molecular_target": "human C1s enzyme (activated C1s) (human)", "assay": "ELISA; ELISA-type binding assay: GST-fusion proteins on wells coated with human C1 complex, C1q, C1r enzyme or C1s enzyme; apparent KD by nonlinear regression (GraphPad Prism)"}, "[4]": {"molecular_target": "human complement C1 complex (human) (UniProt P02745)", "assay": "ELISA; ELISA-type binding assay: GST-fusion proteins on wells coated with human C1 complex, C1q, C1r enzyme or C1s enzyme; apparent KD by nonlinear regression (GraphPad Prism)"}, "[5]": {"molecular_target": "GST-ElpB (B. burgdorferi strain B31)", "assay": "SPR; Biacore T200; GST-ElpB or GST-ElpQ immobilised on the sensor chip; C1 complex (twofold series 0.6 to 150 nM), C1r or C1s enzyme or proenzyme injected as analyte; steady-state affinity fits; triplicate"}, "[6]": {"molecular_target": "GST-ElpQ (B. burgdorferi strain B31)", "assay": "SPR; Biacore T200; GST-ElpB or GST-ElpQ immobilised on the sensor chip; C1 complex (twofold series 0.6 to 150 nM), C1r or C1s enzyme or proenzyme injected as analyte; steady-state affinity fits; triplicate"}, "[7]": {"molecular_target": "human C1s enzyme (activated C1s) (human)"}, "[8]": {"molecular_target": "T1, human C1s enzyme (activated C1s) (human)", "T1 chain 1": "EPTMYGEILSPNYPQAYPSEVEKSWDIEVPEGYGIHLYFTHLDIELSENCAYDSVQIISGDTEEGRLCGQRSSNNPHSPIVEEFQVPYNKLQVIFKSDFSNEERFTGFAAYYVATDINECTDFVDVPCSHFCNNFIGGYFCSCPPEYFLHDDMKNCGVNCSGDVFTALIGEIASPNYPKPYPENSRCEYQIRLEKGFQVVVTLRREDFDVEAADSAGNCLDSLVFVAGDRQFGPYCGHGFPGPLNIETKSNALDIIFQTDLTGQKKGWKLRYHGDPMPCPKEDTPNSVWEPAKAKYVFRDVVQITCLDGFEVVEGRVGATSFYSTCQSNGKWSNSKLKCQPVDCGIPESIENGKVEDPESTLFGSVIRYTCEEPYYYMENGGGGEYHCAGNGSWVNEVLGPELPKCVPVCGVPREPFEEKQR", "T1 chain 2": "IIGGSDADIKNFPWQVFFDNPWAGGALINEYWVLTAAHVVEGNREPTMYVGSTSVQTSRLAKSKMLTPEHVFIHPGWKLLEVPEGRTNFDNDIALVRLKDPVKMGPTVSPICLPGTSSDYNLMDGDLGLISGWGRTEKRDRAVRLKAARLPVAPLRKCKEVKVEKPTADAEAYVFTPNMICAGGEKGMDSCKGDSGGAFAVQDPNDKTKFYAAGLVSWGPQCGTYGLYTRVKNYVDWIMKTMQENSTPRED", "assay": "SPR"}}}
{"molecule": "BBK32-C (domain or fragment)", "values": [{"measurement": "IC50 of inhibition of C4b deposition from normal human serum on IgM-coated wells (ELISA); by the table's footnote based on the non-GST-tagged BBK32-C construct", "setting": "[1]", "result": 18, "unit": "nM"}]}
{"molecule": "GST-BBK32 (from UniProt O50835 1-354) (natural protein)", "values": [{"measurement": "IC50 of inhibition of C3b deposition from normal human serum on IgM-coated wells (ELISA)", "setting": "[1]", "result": 29, "unit": "nM"}, {"measurement": "IC50 of inhibition of C5b-9 deposition from normal human serum on IgM-coated wells (ELISA)", "setting": "[1]", "result": 100, "unit": "nM"}, {"measurement": "IC50 of inhibition of classical-pathway lysis of antibody-sensitised sheep erythrocytes by normal human serum", "setting": "[1]", "result": 79, "unit": "nM"}]}
{"molecule": "GST-ElpB (natural protein)", "values": [{"measurement": "Kd", "setting": "[2]", "result": 41, "unit": "nM"}, {"measurement": "Kd", "setting": "[3]", "result": 6.7, "unit": "nM"}, {"measurement": "Kd", "setting": "[4]", "result": 3.4, "unit": "nM"}, {"measurement": "IC50 of inhibition of C3b deposition from normal human serum on IgM-coated wells (ELISA)", "setting": "[1]", "result": 570, "unit": "nM"}, {"measurement": "IC50 of inhibition of C4b deposition from normal human serum on IgM-coated wells (ELISA)", "setting": "[1]", "result": 330, "unit": "nM"}, {"measurement": "IC50 of inhibition of C5b-9 deposition from normal human serum on IgM-coated wells (ELISA)", "setting": "[1]", "result": 300, "unit": "nM"}, {"measurement": "IC50 of inhibition of classical-pathway lysis of antibody-sensitised sheep erythrocytes by normal human serum", "setting": "[1]", "result": 1600, "unit": "nM"}]}
{"molecule": "GST-ElpQ (natural protein)", "values": [{"measurement": "Kd", "setting": "[2]", "result": 11, "unit": "nM"}, {"measurement": "Kd", "setting": "[3]", "result": 4.7, "unit": "nM"}, {"measurement": "Kd", "setting": "[4]", "result": 3.8, "unit": "nM"}, {"measurement": "IC50 of inhibition of C3b deposition from normal human serum on IgM-coated wells (ELISA)", "setting": "[1]", "result": 450, "unit": "nM"}, {"measurement": "IC50 of inhibition of C4b deposition from normal human serum on IgM-coated wells (ELISA)", "setting": "[1]", "result": 260, "unit": "nM"}, {"measurement": "IC50 of inhibition of C5b-9 deposition from normal human serum on IgM-coated wells (ELISA)", "setting": "[1]", "result": 1000, "unit": "nM"}, {"measurement": "IC50 of inhibition of classical-pathway lysis of antibody-sensitised sheep erythrocytes by normal human serum", "setting": "[1]", "result": 1500, "unit": "nM"}]}
{"molecule": "human C1r enzyme (activated C1r)", "values": [{"measurement": "Kd", "setting": "[5]", "result": 100, "unit": "nM"}, {"measurement": "Kd", "setting": "[6]", "result": 97, "unit": "nM"}]}
{"molecule": "human C1s enzyme (activated C1s)", "values": [{"measurement": "Kd", "setting": "[5]", "result": 3.9, "unit": "nM"}, {"measurement": "Kd", "setting": "[6]", "result": 4.5, "unit": "nM"}]}
{"molecule": "human C1s proenzyme", "values": [{"measurement": "Kd", "setting": "[5]", "result": 270, "unit": "nM"}, {"measurement": "Kd", "setting": "[6]", "result": 170, "unit": "nM"}]}
{"molecule": "human complement C1 complex (from UniProt P02745 23-245; P02746 28-253; P02747 29-245)", "values": [{"measurement": "Kd", "setting": "[5]", "result": 5.6, "unit": "nM"}]}
{"molecule": "tagless ElpB (natural protein)", "values": [{"measurement": "IC50 of inhibition of the cleavage of C2 by C1s enzyme (SDS/PAGE)", "setting": "[7]", "result": 870, "unit": "nM"}]}
{"molecule": "tagless ElpQ (natural protein)", "values": [{"measurement": "IC50 of inhibition of the cleavage of C2 (685 nM) by C1s enzyme (6.25 nM), SDS/PAGE densitometry of C2b, ElpQ 16 to 0.13 uM, 1 h at 37 C", "setting": "[7]", "result": 1400, "unit": "nM"}, {"measurement": "IC50 of inhibition of the cleavage of C4 (616 nM) by C1s enzyme (6.25 nM), SDS/PAGE densitometry of C4 alpha', ElpQ 25 to 0.20 uM, 1 h at 37 C", "setting": "[7]", "result": 11000, "unit": "nM"}]}
{"molecule": "B1", "values": [{"measurement": "Kd", "setting": "[8]", "result": 15, "unit": "nM"}]}
{"molecule": "B2", "values": [{"measurement": "Kd", "setting": "[8]", "result": 16.5, "unit": "nM"}]}
